In data set [1] the target is T1, RPA (RPA70/RPA32/RPA14) (Saccharomyces cerevisiae, UniProt P22336;P26754;P26755 1-621;1-273;1-122). Put plainly: fluorescence anisotropy; no Rtt105; 5 mM MgCl2; stoichiometric, apparent Kd; EMSA: 25 mM Tris-Cl pH 7.5, 200 mM NaCl, 5 mM MgCl2, 5% glycerol, 0.05% Tween-20, 25 C; anisotropy/FRET: 30 mM HEPES pH 7.8, 100 mM KCl, 6% glycerol, 5 mM MgCl2, 1 mM bME, 23 C (stopped flow 25 C). The settings on record: protein: recombinant; copies: 1;1;1. (In general: In fluorescence polarisation assays a small probe gives low polarisation when free and higher when bound to something large.)
T1 sequence (P22336 whole entry, chain 1 of 3): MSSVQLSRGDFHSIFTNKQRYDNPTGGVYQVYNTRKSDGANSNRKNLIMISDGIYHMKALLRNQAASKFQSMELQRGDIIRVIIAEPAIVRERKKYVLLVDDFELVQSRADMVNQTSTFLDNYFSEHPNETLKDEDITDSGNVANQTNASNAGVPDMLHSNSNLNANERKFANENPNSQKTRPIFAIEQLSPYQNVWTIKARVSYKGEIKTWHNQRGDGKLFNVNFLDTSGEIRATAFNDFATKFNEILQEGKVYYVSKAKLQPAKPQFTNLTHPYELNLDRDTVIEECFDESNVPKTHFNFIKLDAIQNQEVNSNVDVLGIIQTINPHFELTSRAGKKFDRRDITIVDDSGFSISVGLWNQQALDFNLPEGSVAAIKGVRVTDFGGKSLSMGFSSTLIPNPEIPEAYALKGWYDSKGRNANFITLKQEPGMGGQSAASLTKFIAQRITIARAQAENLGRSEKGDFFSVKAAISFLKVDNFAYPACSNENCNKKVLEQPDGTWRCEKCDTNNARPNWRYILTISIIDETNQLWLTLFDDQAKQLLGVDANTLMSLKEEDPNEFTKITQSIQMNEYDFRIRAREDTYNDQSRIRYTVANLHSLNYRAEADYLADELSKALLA
T1 sequence (P26754 whole entry, chain 2 of 3): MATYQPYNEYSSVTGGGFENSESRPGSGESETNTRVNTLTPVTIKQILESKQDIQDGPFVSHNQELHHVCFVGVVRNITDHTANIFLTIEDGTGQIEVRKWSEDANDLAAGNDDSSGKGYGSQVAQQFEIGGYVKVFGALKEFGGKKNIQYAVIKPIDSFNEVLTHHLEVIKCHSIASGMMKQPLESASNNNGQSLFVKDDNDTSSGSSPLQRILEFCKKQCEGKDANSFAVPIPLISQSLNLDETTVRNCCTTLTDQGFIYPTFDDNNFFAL
T1 sequence (P26755 whole entry, chain 3 of 3): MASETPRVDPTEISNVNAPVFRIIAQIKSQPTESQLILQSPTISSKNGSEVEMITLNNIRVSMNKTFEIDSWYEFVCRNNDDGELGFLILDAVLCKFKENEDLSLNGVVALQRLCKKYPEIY

The target of data set [2] is T2, RPA (RPA70/RPA32/RPA14);Rtt105 (Saccharomyces cerevisiae;Saccharomyces …, UniProt P22336;P26754;P26755;P40063 1-621;1-273;1-122;1-208, |). The data set can be described thus: fluorescence anisotropy; Rtt105 1:1; 5 mM MgCl2; stoichiometric, apparent Kd; EMSA: 25 mM Tris-Cl pH 7.5, 200 mM NaCl, 5 mM MgCl2, 5% glycerol, 0.05% Tween-20, 25 C; anisotropy/FRET: 30 mM HEPES pH 7.8, 100 mM KCl, 6% glycerol, 5 mM MgCl2, 1 mM bME, 23 C (stopped flow 25 C). The settings on record: protein: recombinant;recombinant; tags: ;; copies: 1;1;1;1.
T2 sequence (P22336 whole entry, chain 1 of 4): as the sequence (P22336 whole entry, chain 1 of 3) above
T2 sequence (P26754 whole entry, chain 2 of 4): as the sequence (P26754 whole entry, chain 2 of 3) above
T2 sequence (P26755 whole entry, chain 3 of 4): as the sequence (P26755 whole entry, chain 3 of 3) above
T2 sequence (P40063 whole entry, chain 4 of 4): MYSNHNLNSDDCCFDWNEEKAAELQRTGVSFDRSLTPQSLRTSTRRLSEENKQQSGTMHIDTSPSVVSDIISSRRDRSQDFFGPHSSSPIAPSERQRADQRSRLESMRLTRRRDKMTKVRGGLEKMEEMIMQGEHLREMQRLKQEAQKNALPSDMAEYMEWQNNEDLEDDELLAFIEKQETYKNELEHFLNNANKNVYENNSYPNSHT

The target of data set [3] is T3, RPA-DBD-D-Cy3;Rtt105-Cy5 (C13S) (Saccharomyces cerevisiae;Saccharomyces …, UniProt P22336;P26754;P26755;P40063 1-621;1-273;1-122;1-208, |C13S). Put plainly: FRET titration; ssDNA-induced remodeling of preformed RPA-Rtt105 (200 nM each); EMSA: 25 mM Tris-Cl pH 7.5, 200 mM NaCl, 5 mM MgCl2, 5% glycerol, 0.05% Tween-20, 25 C; anisotropy/FRET: 30 mM HEPES pH 7.8, 100 mM KCl, 6% glycerol, 5 mM MgCl2, 1 mM bME, 23 C (stopped flow 25 C). Conditions: protein: recombinant;recombinant; tags: Cy3 on DBD-D via 4AZP;Cy5 on Cys12; copies: 1;1;1;1. (In general: Mobility shift assays separate free from complexed probe on a gel.)
T3 sequence (P22336 whole entry, chain 1 of 4): as the sequence (P22336 whole entry, chain 1 of 3) above
T3 sequence (P26754 whole entry, chain 2 of 4): as the sequence (P26754 whole entry, chain 2 of 3) above
T3 sequence (P26755 whole entry, chain 3 of 4): as the sequence (P26755 whole entry, chain 3 of 3) above
T3 sequence (P40063 whole entry C13S, chain 4 of 4): as the sequence (P40063 whole entry, chain 4 of 4) above, with C13S counted along it

Data set [4] addresses T1, RPA (RPA70/RPA32/RPA14). The data set can be described thus: fluorescence anisotropy; ~2 RPA per DNA; EMSA: 25 mM Tris-Cl pH 7.5, 200 mM NaCl, 5 mM MgCl2, 5% glycerol, 0.05% Tween-20, 25 C; anisotropy/FRET: 30 mM HEPES pH 7.8, 100 mM KCl, 6% glycerol, 5 mM MgCl2, 1 mM bME, 23 C (stopped flow 25 C). Conditions: protein: recombinant; copies: 1;1;1.
Data set [5] concerns the target T2, RPA (RPA70/RPA32/RPA14);Rtt105. The data set can be described thus: SEC; [RPA]2-(dT)70 without Rtt105, plus Rtt105-RPA-(dT)70; EMSA: 25 mM Tris-Cl pH 7.5, 200 mM NaCl, 5 mM MgCl2, 5% glycerol, 0.05% Tween-20, 25 C; anisotropy/FRET: 30 mM HEPES pH 7.8, 100 mM KCl, 6% glycerol, 5 mM MgCl2, 1 mM bME, 23 C (stopped flow 25 C). Conditions: protein: recombinant;recombinant; tags: ;; copies: 1;1;1;1. In general terms: SEC sorts molecules by how far they enter the pores of the column.

Data set [6] deals with T3, RPA-DBD-D-Cy3;Rtt105-Cy5 (C13S). The data set can be described thus: FRET titration; ssDNA-induced Rtt105 release from preformed RPA-Rtt105 (200 nM each); EMSA: 25 mM Tris-Cl pH 7.5, 200 mM NaCl, 5 mM MgCl2, 5% glycerol, 0.05% Tween-20, 25 C; anisotropy/FRET: 30 mM HEPES pH 7.8, 100 mM KCl, 6% glycerol, 5 mM MgCl2, 1 mM bME, 23 C (stopped flow 25 C). The settings on record: protein: recombinant;recombinant; tags: Cy3 on DBD-D via 4AZP;Cy5 on Cys12; copies: 1;1;1;1.

B1: FAM-(dT)35 (ssDNA)
DNA: TTTTTTTTTTTTTTTTTTTTTTTTTTTTTTTTTTT
Turning to B1, the Kd in data set [1] worked out at 4 ± 1.3 nM; in data set [2] it was 2.4 ± 1.2 nM.

B2: (dT)35 (ssDNA)
DNA: TTTTTTTTTTTTTTTTTTTTTTTTTTTTTTTTTTT
On to B2, for which the “apparent K (half saturation)” value in data set [3] was found to be 130 ± 10.5 nM.

B3: (dT)70 (ssDNA)
DNA: TTTTTTTTTTTTTTTTTTTTTTTTTTTTTTTTTTTTTTTTTTTTTTTTTTTTTTTTTTTTTTTTTTTTTT
On to B3, for which the binding result in data set [4] and in data set [5] was “binds” throughout. In addition, the “apparent K (half saturation)” value in data set [6] amounted to 42.8 ± 0.37 nM.

The values above are taken from article PMC9440123, “Rtt105 regulates RPA function by configurationally stapling the flexible domains” (Nature Communications, 2022).
